# From patent US20180057888A1 (University of Texas, published 2018)
# B1: myc-tagged mutant K-H (R106A) (other)
# chain: MSSFSESALEKKLSELSNSQQSVQTLSLWLIHHRKHAGPIVSVWHRELRKAKSNRKLTFLYLANDVIQNSKRKGPEFTREFESVLVDAFSHVAREADEGCKKPLEALLNIWQERSVYGGEFIQQLKLSMEDSKSPPPKATEEKKSLKRTFQQIQEEEDDDYPGSYSPQDPSAGPLLTEELIKALQDLENAASGDATVRQKIASLPQEVQDVSLLEKITDKEAAERLSKTVDEACLLLAEYNGRLAAELEDRRQLARMLVEYTQNQKDVLSEKEKKLEEYKQKLARVTQVRKELKSHIQSLPDLSLLPNVTGGLAPLPSAGDLFSTD
# notes: Expressed from a transfected myc-tagged construct and immunoprecipitated with anti-c-myc antibody; also called R106A mutant K-H; mutant R106A K-H; not shown: myc tag from the pCMV-myc vector
# Biological target: RNA Polymerase II (RNAPII), phospho-Ser2 C-terminal domain (pS2-CTD) (UniProt P24928 1-1970)
# Experiment: co-immunoprecipitation with anti-c-myc antibody, Western blot for RNAPII
# Experimental: Whole-cell lysates and nuclear extracts were prepared as previously described (Morales et al., 2014). See Supplementary Table S2 for a list of specific antibodies and dilutions used. Protein concentrations were determined by BCA Assay following manufacturer's instructions (Thermo Scientific). Normalized protein samples were separated on denaturing gradient gels (4-20% from BioRad) and were transferred to PVDF membranes for immunoblotting. After transfer, the membranes were first blocked with 1× Sigma Blocking Buffer for an hour at room temperature. The membranes were then incubated with the indicated primary antibodies diluted in 1× Sigma Blocking Buffer at 4° C. overnight. After this step, the membranes were washed with PBST (3×, 10 minutes each). HRP-conjugated secondary antibodies were diluted in 1× Sigma Blocking Buffer and incubated with the membranes at room temperature for 1 hr. […]
# Log phase cells were plated in 10-cm dishes, and incubated after transfection with either empty pCMV-myc vector, myc-tagged wild-type K-H or myc-tagged mutant K-H (R106A) constructs for 48 hr using Lipofectamine 2000. […] Co-immunoprecipitated proteins (e.g., RNAPII) were analyzed by Western blot as previously described.
binder,measurement,value
B1,binding result,no binding
